Laboratory results reported in patent publication CN112111006A.
Where a chain is given by its changes, count along the chain named.

B1: P32蛋白单克隆抗体,细胞株编号701 (antibody, V domains shown)
VH: QSAPGLVQASQCLSITCTVSGFSLTTYAVHWVRQPPGQGLEWQGVIWSGGRTDYNAAFMCRLSISKDNSNSQDFFKMNSLQADDTAIYYCARNYYGGSLDYWGQGTTLTVSS
VL: DIVLTQTPASLAVSLGQRATISSRASNSVSTSRYSYMHWNQQKPGQPPRLLIYLVSNLESGVPARFSGSGSGTDFTLNIHPVEEEDAATYYCQHIRELTFGGGTKLEIK
B2: P32蛋白单克隆抗体,细胞株编号901 (antibody, V domains shown)
VH: QVQLNQSGPGLVQPSQSLSITCTLSGFSLTTYAVHWVRQSPGKGLEWLGVIWIGGRTDYNAAFISRLSISKDNSKSQVFFEMNSLQPNDTAIYYCARNYYGGSFDYWGQGTTLTVS
VL: B1 VL with T7S, S23Y, A25D, N27K, R33G

Legend:
[1] = target: 牛结节性皮肤病病毒(LSDV) P32蛋白,原核表达,去掉C端跨膜区 (Lumpy skin disease virus (LSDV)); experiment: ELISA of the ascites-purified monoclonal antibody on P32
[2] = target: 牛结节性皮肤病病毒(LSDV) P32蛋白,原核表达,去掉C端跨膜区 (Lumpy skin disease virus (LSDV))

| Binder | ELISA效价 (titer (1:dilution)) [1] | 检测限 [2] [ng/mL] |
| --- | --- | --- |
| B1 | > 128000 | 10 |
| B2 | > 128000 | 10 |
